Biological target: human CD38 (human, UniProt P28907 1-300)
Assay: cell-based or functional assay

B1: chimeric 38SB31 (antibody, V domains shown)
VH: DVKLVESGGGLVKPGGSLKLSCEASGFTFSSYTLSWVRQTPETRLEWVATISIGGRYTYYPDSVEGRFTISRDNAKNTLYLQMNSLKSEDTAMYYCTRDFNGYSDFWGQGTTLTVSS
VL: DTVMTQSHKFISTSVGDRVSITCKASQVVGSAVAWYQQKPGQSPKLLIYWASTRHTGVPDRFTGSGSGTDFTLTISNVQSEDLADYFCQQYNSYPYTFGGGTKLEIKR
B1 was tested, and the “CDC: specific viability of Daudi cells with 1.25 µg/mL or higher antibody and complement” value was 53%.

From patent publication US20200408765A1 (Sanofi, published 2020)
